Results taken from the supplement of paper PMC10126150.
± gives the standard deviation of the averaged measurements.

What follows are sequences tested on ATP (assay: switch fluorescence ratio, 500 uM ATP over buffer (Cy3 cluster intensity, sum of 5 cycles each) (fold (ratio)); higher = stronger signal-on switching upon ATP binding; sequences stand for … in TCGTCGGCAGCGTCAGATGTGTATAAGAGACAGTTTTTTTTTTTTTTTTTTTTTTTTT…TC). Details: aptamer strand: ATP DNA aptamer (quencher-CACCTGGGGGAGTATTGCGGAGGAAGG + anchor), 100 nM annealed; ATP concentration: 500 uM.
Summary of the method: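 Values give the fluorescence ratio for each switch-domain sequence, averaged from per-cluster ratios of summed target-cycle to summed buffer-cycle Cy3 intensity. The Cy3-labelled switching-strand clusters sat on a modified Illumina MiSeq flow-cell, were annealed to 100 nM quencher-labelled ATP aptamer, and were imaged in selection buffer, then after 15 min with 500 uM ATP at 22 °C. Five cycles ran with NaOH stripping and re-annealing between them, and clusters outside 100-1000 RFU were excluded.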
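Further: ATP exposure 15 min at 22 °C before imaging.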

| Sequence | switch fluorescence ratio |
| --- | --- |
| GGGTGAGTCG | 1.02 ± 0.037 |
| GGGTGAGTGG | 1.01 ± 0.021 |
| GGGTGATAGA | 1.01 ± 0.039 |
| GGGTGCACAC | 1.09 ± 0.095 |
| GGGTGCAGGG | 0.9932 ± 0.0059 |
| GGGTGCATCG | 1.004 ± 0.0046 |
| GGGTGCATTG | 1.03 ± 0.021 |
| GGGTGCGCGA | 1.04 ± 0.041 |
| GGGTGCGGCA | 0.998 ± 0.019 |
| GGGTGCGGTT | 1.011 ± 0.01 |
| GGGTGCTCGG | 1 ± 0.019 |
| GGGTGCTGCG | 1.01 ± 0.037 |
| GGGTGCTGTT | 1.02 ± 0.036 |
| GGGTGGCAGG | 1.01 ± 0.013 |
| GGGTGGCCAA | 0.981 ± 0.012 |
| GGGTGGGCCC | 0.995 ± 0.041 |
| GGGTGGGCCT | 0.989 ± 0.042 |
| GGGTGGGGGA | 1.03 ± 0.028 |
| GGGTGGGGTG | 1 ± 0.018 |
| GGGTGGGTAT | 1 ± 0.027 |
| GGGTGGTCGG | 0.978 ± 0.032 |
| GGGTGTAGGA | 1.03 ± 0.065 |
| GGGTGTATTG | 1.01 ± 0.044 |
| GGGTGTGAGA | 1.04 ± 0.03 |
| GGGTGTTGTA | 1 ± 0.055 |

| Sequence | switch fluorescence ratio |
| --- | --- |
| GGGTTAAAGT | 0.994 ± 0.022 |
| GGGTTAAATG | 0.989 ± 0.028 |
| GGGTTAAGAG | 1.01 ± 0.02 |
| GGGTTAATGA | 1 ± 0.048 |
| GGGTTAATGT | 1.01 ± 0.061 |
| GGGTTACTGG | 1.002 ± 0.0021 |
| GGGTTAGACG | 1.01 ± 0.011 |
| GGGTTAGAGT | 0.993 ± 0.025 |
| GGGTTAGATT | 0.993 ± 0.06 |
| GGGTTATAGT | 1.01 ± 0.017 |
| GGGTTATCAC | 0.984 ± 0.0095 |
| GGGTTATGAG | 0.977 ± 0.06 |
| GGGTTATGGG | 1.005 ± 0.008 |
| GGGTTATTGT | 1 ± 0.016 |
| GGGTTCAAAC | 1 ± 0.039 |
| GGGTTCAATC | 1.04 ± 0.014 |
| GGGTTCAGGC | 1.05 ± 0.059 |
| GGGTTCCGGG | 1.02 ± 0.021 |
| GGGTTCGTTC | 0.989 ± 0.054 |
| GGGTTCTAGG | 0.999 ± 0.043 |
| GGGTTGAAGA | 0.971 ± 0.04 |
| GGGTTGAATA | 0.953 ± 0.056 |
| GGGTTGCCAG | 0.997 ± 0.025 |
| GGGTTGCCGT | 0.977 ± 0.036 |
| GGGTTGGAAG | 1.02 ± 0.067 |

| Sequence | switch fluorescence ratio |
| --- | --- |
| GGGTTGGATT | 0.991 ± 0.023 |
| GGGTTGGCTC | 0.994 ± 0.041 |
| GGGTTGGGAC | 1.01 ± 0.051 |
| GGGTTGGGTG | 1.01 ± 0.042 |
| GGGTTGGTGT | 0.978 ± 0.015 |
| GGGTTGGTTG | 0.9929 ± 0.0052 |
| GGGTTGTGCT | 0.953 ± 0.015 |
| GGGTTGTTTG | 0.992 ± 0.036 |
| GGGTTTAAGG | 1.02 ± 0.015 |
| GGGTTTACAA | 0.989 ± 0.029 |
| GGGTTTACGG | 1.02 ± 0.017 |
| GGGTTTACTT | 0.99844 ± 0.00094 |
| GGGTTTATGT | 0.984 ± 0.029 |
| GGGTTTATTG | 0.998 ± 0.049 |
| GGGTTTCGAC | 1.02 ± 0.013 |
| GGGTTTCGCG | 1.01 ± 0.023 |
| GGGTTTCGGG | 0.9779 ± 0.0092 |
| GGGTTTGAAA | 1.01 ± 0.067 |
| GGGTTTGGGC | 1.01 ± 0.024 |
| GGGTTTGTGG | 0.984 ± 0.023 |
| GGGTTTTCCA | 1.01 ± 0.021 |
| GGGTTTTGGC | 1 ± 0.066 |
| GGGTTTTTAT | 0.989 ± 0.027 |
| GGGTTTTTGC | 1.04 ± 0.045 |
| GGGTTTTTTA | 0.988 ± 0.022 |

| Sequence | switch fluorescence ratio |
| --- | --- |
| GGGTTTTTTC | 0.9798 ± 0.0046 |
| GGTAAACAAA | 1.026 ± 0.0079 |
| GGTAAATTGA | 1.04 ± 0.03 |
| GGTAACATCG | 1.003 ± 0.0066 |
| GGTAACGTGA | 1.01 ± 0.023 |
| GGTAAGTCTA | 0.9832 ± 0.0059 |
| GGTAATATAC | 1.057 ± 0.0076 |
| GGTAATGCGG | 1.01 ± 0.041 |
| GGTAATTTTG | 0.996 ± 0.061 |
| GGTACAAGAT | 1.03 ± 0.013 |
| GGTACACACA | 1.26 ± 0.061 |
| GGTACCAAAA | 0.992 ± 0.024 |
| GGTACGCG | 0.982 ± 0.027 |
| GGTACGGAGA | 1.02 ± 0.011 |
| GGTACGGTTT | 1.04 ± 0.02 |
| GGTACTAATA | 1.023 ± 0.007 |
| GGTACTACCG | 1.03 ± 0.044 |
| GGTACTCATT | 0.994 ± 0.034 |
| GGTACTGGGG | 1.06 ± 0.015 |
| GGTACTTCTA | 1.01 ± 0.018 |
| GGTACTTGTA | 1 ± 0.016 |
| GGTAGAAACT | 1.04 ± 0.014 |
| GGTAGACCGC | 0.987 ± 0.053 |
| GGTAGAGTAA | 1 ± 0.033 |
| GGTAGATAGT | 0.979 ± 0.029 |
